Tests used:
[1] = molecular target: T1, Recombinant human VISTA Fc Chimera (human); test: AVEXIS screen
T1 construct: also called rhVISTA; VISTA/IgG Fc fusion protein

VISTA(1-195)-COMP-His [2] = molecular target: VISTA(1-195)-COMP-His (human); test: SPR (Biacore T200); VISTA-COMP against monomeric VISTA, VSIG3-Fc analyte
Experimental: (§1) VISTA or VISTA-COMP (each prepared as described in Example 4) was covalently immobilized to the surface of a CM5 chip (GE Healthcare, US) using an anti-poly His antibody. Dilutions of VSIG3 Fc-fusion were then flowed over the surface at concentration ranging between 0.2 nM and 20 μM and the double reference subtracted data fit to a 1:1 Langmuir binding model with Biacore T200 Evaluation Software version 3.1
This increase is largely due to an […].

[3] = molecular target: T1, Recombinant human VISTA Fc Chimera; test: functional ELISA; rhVISTA coated 2 µg/mL, biotinylated rhVSIG3, streptavidin-HRP
Experimental: Recombinant human VSIG3 Fc Chimera (“rhVSIG3”—encoded by SEQ ID NO:3; see Table 1) specifically binds to a recombinant human VISTA Fc Chimera (“rhVISTA”—encoded by SEQ ID NO:6; see Table 1) on a functional ELISA binding assay. rhVISTA was coated on the wells of a ELISA microtiter plate at 2 μg/ml in a 100 μL volume. Following blocking of the wells with 1% BSA, varying amounts of rhVSIG3 labeled with biotin was added. Biotin label associated with the plate due to the rhVSIG3-rhVISTA interaction was detected with streptavidin-HRP. […] The non-specific binding is subtracted and in all cases was less than 5% of the total signal.

VISTA(1-195)-COMP-His [4] = molecular target: VISTA(1-195)-COMP-His (human); test: SPR (Biacore T200); VISTA-COMP captured by anti-poly His antibody on CM5 chip, VSIG3-Fc analyte, 1:1 Langmuir fit
Experimental: as §1

monomeric VISTA [5] = molecular target: monomeric VISTA (human); test: SPR (Biacore T200); monomeric VISTA captured by anti-poly His antibody on CM5 chip, VSIG3-Fc analyte, 1:1 Langmuir fit
Sequence of monomeric VISTA (human) (Q9H7M9 33-194): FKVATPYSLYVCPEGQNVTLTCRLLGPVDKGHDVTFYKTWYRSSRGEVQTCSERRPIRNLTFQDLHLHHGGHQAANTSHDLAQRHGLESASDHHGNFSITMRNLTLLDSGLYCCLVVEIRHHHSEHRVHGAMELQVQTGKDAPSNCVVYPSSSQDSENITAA
Experimental: as §1

VISTA(1-195)-COMP-His [6] = molecular target: VISTA(1-195)-COMP-His (human); test: SPR (Biacore): VISTA-COMP captured by anti-poly-His antibody on a CM5 chip, VSIG3-Fc analyte 0.2 to 500 nM, 1:1 fit
Experimental: (§2) FIG. 9A-FIG. 9D show schematics and quantification of the kinetics and affinity of the VISTA-VSIG3 interaction by surface plasmon resonance (Biacore) using monomeric VISTA and multimeric VISTA-COMP. FIG. 9A and FIG. 9C show schematics of the Biacore experiment, where VISTA (FIG. 9A) or VISTA-COMP (FIG. 9C) is captured on the surface of a CM5 chip (GE Healthcare) using an anti-poly His antibody. The analyte, VSIG3-Fc, is flowed over the captured VISTA at concentration ranging between 0.2 nM and 20 μM. FIG. 9B and FIG. 9D show resulting sensorgrams and kinetic fits using a 1:1 model for the monomeric VISTA-VSIG3-Fc interaction (FIG. 9B) and the multimeric VISTA-COMP-VSIG3-Fc interaction (FIG. 9D). For captured monomeric VISTA, the VSIG3-Fc analyte was tested in the range of 0.247 μM to 20 μM. For captured multimeric VISTA-COMP, the VSIG3-Fc analyte was tested in the range of 0.2 nM to 500 nM.
as §1

monomeric VISTA [7] = molecular target: monomeric VISTA (human); test: SPR (Biacore): monomeric VISTA captured by anti-poly-His antibody on a CM5 chip, VSIG3-Fc analyte 0.247 to 20 µM, 1:1 fit
Experimental: as §2, §1

Sequence of VISTA(1-195)-COMP-His (human) (chain, as listed by the source): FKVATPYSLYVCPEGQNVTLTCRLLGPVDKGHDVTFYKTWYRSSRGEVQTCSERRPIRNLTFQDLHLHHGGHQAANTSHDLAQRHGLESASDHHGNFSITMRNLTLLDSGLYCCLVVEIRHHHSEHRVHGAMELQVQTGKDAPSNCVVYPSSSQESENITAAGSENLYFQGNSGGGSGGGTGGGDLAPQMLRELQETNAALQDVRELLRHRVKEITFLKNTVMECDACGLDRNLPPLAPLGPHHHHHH

Row | binding result [1] | fold higher affinity than with monomeric VISTA (VISTA(1-195)-COMP-His [2]) [fold] | EC50 [3] [µg/mL] | Kd (VISTA(1-195)-COMP-His [4]) [nM] | Kd (monomeric VISTA [5]) [nM] | Kd (VISTA(1-195)-COMP-His [6]) [nM] | Kd (monomeric VISTA [7]) [nM] | Binder
1 | no binding |  |  |  |  |  |  | VSIG3(1-245)-COMP-AlkPhos-Flag/His (other, also called penta-VSIG3) LEVSESPGSIQVARGQPAVLPCTFTTSAALINLNVIWMVTPLSNANQPEQVILYQGGQMFDGAPRFHGRVGFTGTMPATNVSIFINNTQLSDTGTYQCLVNNLPDIGGRNIGVTGLTVLVPPSAPHCQIQGSQDIGSDVILLCSSEEGIPRPTYLWEKLDNTLKLPPTATQDQVQGTVTIRNISALSSGLYQCVASNAIGTSTCLLDLQVISPQPRNIGLIAGSENLYFQGNSGGGSGGGTGGGDLAPQMLRELQETNAALQDVRELLRHRVKEITFLKNTVMECDACGLDRNLPPLAPLGPIIPVEEENPDFWNREAAEALGAAKKLQPAQTAAKNLIIFLGDGMGVSTVTAARILKGQKKDKLGPEIPLAMDRFPYVALSKTYNVDKHVPDSGATATAYLCGVKGNFQTIGLSAAARFNQCNTTRGNEVISVMNRAKKAGKSVGVVTTTRVQHASPAGTYAHTVNRNWYSDADVPASARQEGCQDIATQLISNMDIDVILGGGRKYMFRMGTPDPEYPDDYSQGGTRLDGKNLVQEWLAKRQGARYVWNRTELMQASLDPSVTHLMGLFEPGDMKYEIHRDSTLDPSLMEMTEAALRLLSRNPRGFFLFVEGGRIDHGHHESRAYRALTETIMFDDAIERAGQLTSEEDTLSLVTADHSHVFSFGGYPLRGSSIFGLAPGKARDRKAYTVLLYGNGPGYVLKDGARPDVTESESGSPEYRQQSAVPLDEETHAGEDVAVFARGPQAHLVHGVQEQTFIAHVMAFAACLEPYTACDLAPPAGTTDDYKDDDDKHHHHHH
2 |  | ~150 | ~0.25 | ~17 | ~2500 | 17 | 2520 | Recombinant human VSIG3 Fc Chimera (Fc fusion, also called rhVSIG3; rhVSIG-3) LEVSESPGSIQVARGQTAVLPCTFTTSAALINLNVIWMVTPLSNANQPEQVILYQGGQMFDGAPRFHGRVGFTGTMPATNVSIFINNTQLSDTGTYQCLVNNLPDIGGRNIGVTGLTVLVPPSAPHCQIQGSQDIGSDVILLCSSEEGIPRPTYLWEKLDNTLKLPPTATQDQVQGTVTIRNISALSSGLYQCVASNAIGTSTCLLDLQVISPQPRNIGLIAGIEGRMDPKSCDKTHTCPPCPAPEAEGAPSVFLFPPKPKDTLMISRTPEVTCVVVDVSHEDPEVKFNWYVDGVEVHNAKTKPREEQYNSTYRVVSVLTVLHQDWLNGKEYKCKVSNKALPAPIEKTISKAKGQPREPQVYTLPPSRDELTKNQVSLTCLVKGFYPSDIAVEWESNGQPENNYKATPPVLDSDGSFFLYSKLTVDKSRWQQGNVFSCSVMHEALHNHYTQKSLSLSPGK

— patent US20200362031A1 (BIO TECHNE, published 2020)
